Molecular target: NK1 receptor (human) (UniProt P25103)
Assay: cell-based or functional assay

Chain of NK1 receptor (human) (P25103 87-407): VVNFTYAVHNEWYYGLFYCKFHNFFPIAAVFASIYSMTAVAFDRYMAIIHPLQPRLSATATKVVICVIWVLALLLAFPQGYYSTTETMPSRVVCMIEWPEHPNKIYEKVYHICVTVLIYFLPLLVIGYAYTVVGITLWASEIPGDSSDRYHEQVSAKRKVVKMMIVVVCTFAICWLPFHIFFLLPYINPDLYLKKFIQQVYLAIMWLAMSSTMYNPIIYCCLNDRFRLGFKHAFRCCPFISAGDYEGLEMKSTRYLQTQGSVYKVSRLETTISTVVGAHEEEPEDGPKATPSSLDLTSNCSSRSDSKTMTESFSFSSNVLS

Percentage of inhibition of cell cultures; Breast carcinoma (ductal adenocarcinoma); cases with amplification of the gene that encodes for the NK1 receptor: 96%
Percentage of inhibition of cell cultures; Breast carcinoma (ductal adenocarcinoma); cases without amplification of the gene that encodes for the NK1 receptor: 26%
Percentage of inhibition of cell cultures; Breast carcinoma (ductal adenocarcinoma); high expression of the truncated form of NK1 receptor (Group B): 94%
Percentage of inhibition of cell cultures; Breast carcinoma (ductal adenocarcinoma); low expression of the truncated form of NK1 receptor (Group A): 24%
Percentage of inhibition of cell cultures; Burkitt Lymphoma; cases with amplification of the gene that encodes for the NK1 receptor: 96%
Percentage of inhibition of cell cultures; Burkitt Lymphoma; cases without amplification of the gene that encodes for the NK1 receptor: 25%
Percentage of inhibition of cell cultures; Burkitt Lymphoma; high expression of the truncated form of NK1 receptor (Group B): 96%
Percentage of inhibition of cell cultures; Burkitt Lymphoma; low expression of the truncated form of NK1 receptor (Group A): 26%
Percentage of inhibition of cell cultures; Carcinoma of the uterine cervix (Squamous cell carcinoma); cases with amplification of the gene that encodes for the NK1 receptor: 94%
Percentage of inhibition of cell cultures; Carcinoma of the uterine cervix (Squamous cell carcinoma); cases without amplification of the gene that encodes for the NK1 receptor: 27%
Percentage of inhibition of cell cultures; Carcinoma of the uterine cervix (Squamous cell carcinoma); high expression of the truncated form of NK1 receptor (Group B): 95%
Percentage of inhibition of cell cultures; Carcinoma of the uterine cervix (Squamous cell carcinoma); low expression of the truncated form of NK1 receptor (Group A): 24%
Percentage of inhibition of cell cultures; Colon carcinoma (Adenocarcinoma); cases with amplification of the gene that encodes for the NK1 receptor: 96%
Percentage of inhibition of cell cultures; Colon carcinoma (Adenocarcinoma); cases without amplification of the gene that encodes for the NK1 receptor: 24%
Percentage of inhibition of cell cultures; Colon carcinoma (Adenocarcinoma); high expression of the truncated form of NK1 receptor (Group B): 94%
Percentage of inhibition of cell cultures; Colon carcinoma (Adenocarcinoma); low expression of the truncated form of NK1 receptor (Group A): 24%
Percentage of inhibition of cell cultures; Endometrium carcinoma; cases with amplification of the gene that encodes for the NK1 receptor: 96%
Percentage of inhibition of cell cultures; Endometrium carcinoma; cases without amplification of the gene that encodes for the NK1 receptor: 28%
Percentage of inhibition of cell cultures; Endometrium carcinoma; high expression of the truncated form of NK1 receptor (Group B): 94%
Percentage of inhibition of cell cultures; Endometrium carcinoma; low expression of the truncated form of NK1 receptor (Group A): 26%
Percentage of inhibition of cell cultures; Gastric carcinoma (Adenocarcinoma); cases with amplification of the gene that encodes for the NK1 receptor: 95%
Percentage of inhibition of cell cultures; Gastric carcinoma (Adenocarcinoma); cases without amplification of the gene that encodes for the NK1 receptor: 25%
Percentage of inhibition of cell cultures; Gastric carcinoma (Adenocarcinoma); high expression of the truncated form of NK1 receptor (Group B): 96%
Percentage of inhibition of cell cultures; Gastric carcinoma (Adenocarcinoma); low expression of the truncated form of NK1 receptor (Group A): 22%
Percentage of inhibition of cell cultures; Glioma (astrocytoma); cases with amplification of the gene that encodes for the NK1 receptor: 95%
Percentage of inhibition of cell cultures; Glioma (astrocytoma); cases without amplification of the gene that encodes for the NK1 receptor: 25%
Percentage of inhibition of cell cultures; Glioma (astrocytoma); high expression of the truncated form of NK1 receptor (Group B): 96%
Percentage of inhibition of cell cultures; Glioma (astrocytoma); low expression of the truncated form of NK1 receptor (Group A): 24%
Percentage of inhibition of cell cultures; Lung carcinoma (non small cell lung carcinoma); cases with amplification of the gene that encodes for the NK1 receptor: 97%
Percentage of inhibition of cell cultures; Lung carcinoma (non small cell lung carcinoma); cases without amplification of the gene that encodes for the NK1 receptor: 25%
Percentage of inhibition of cell cultures; Lung carcinoma (non small cell lung carcinoma); high expression of the truncated form of NK1 receptor (Group B): 95%
Percentage of inhibition of cell cultures; Lung carcinoma (non small cell lung carcinoma); low expression of the truncated form of NK1 receptor (Group A): 26%
Percentage of inhibition of cell cultures; Lung carcinoma (small cell lung carcinoma); cases with amplification of the gene that encodes for the NK1 receptor: 95%
Percentage of inhibition of cell cultures; Lung carcinoma (small cell lung carcinoma); cases without amplification of the gene that encodes for the NK1 receptor: 26%
Percentage of inhibition of cell cultures; Lung carcinoma (small cell lung carcinoma); high expression of the truncated form of NK1 receptor (Group B): 96%
Percentage of inhibition of cell cultures; Lung carcinoma (small cell lung carcinoma); low expression of the truncated form of NK1 receptor (Group A): 25%
Percentage of inhibition of cell cultures; Melanoma (Nodular Melanoma); cases with amplification of the gene that encodes for the NK1 receptor: 97%
Percentage of inhibition of cell cultures; Melanoma (Nodular Melanoma); cases without amplification of the gene that encodes for the NK1 receptor: 26%
Percentage of inhibition of cell cultures; Melanoma (Nodular Melanoma); high expression of the truncated form of NK1 receptor (Group B): 96%
Percentage of inhibition of cell cultures; Melanoma (Nodular Melanoma); low expression of the truncated form of NK1 receptor (Group A): 26%
Percentage of inhibition of cell cultures; Non Hodgkin Lymphoma B (diffuse B cell lymphoma); cases with amplification of the gene that encodes for the NK1 receptor: 94%
Percentage of inhibition of cell cultures; Non Hodgkin Lymphoma B (diffuse B cell lymphoma); cases without amplification of the gene that encodes for the NK1 receptor: 26%
Percentage of inhibition of cell cultures; Non Hodgkin Lymphoma B (diffuse B cell lymphoma); high expression of the truncated form of NK1 receptor (Group B): 95%
Percentage of inhibition of cell cultures; Non Hodgkin Lymphoma B (diffuse B cell lymphoma); low expression of the truncated form of NK1 receptor (Group A): 24%
Percentage of inhibition of cell cultures; Non Hodgkin Lymphoma T (diffuse T cell lymphoma); cases with amplification of the gene that encodes for the NK1 receptor: 95%
Percentage of inhibition of cell cultures; Non Hodgkin Lymphoma T (diffuse T cell lymphoma); cases without amplification of the gene that encodes for the NK1 receptor: 24%
Percentage of inhibition of cell cultures; Non Hodgkin Lymphoma T (diffuse T cell lymphoma); high expression of the truncated form of NK1 receptor (Group B): 95%
Percentage of inhibition of cell cultures; Non Hodgkin Lymphoma T (diffuse T cell lymphoma); low expression of the truncated form of NK1 receptor (Group A): 25%
Percentage of inhibition of cell cultures; Ovarian carcinoma (Adenocarcinoma); cases with amplification of the gene that encodes for the NK1 receptor: 95%
Percentage of inhibition of cell cultures; Ovarian carcinoma (Adenocarcinoma); cases without amplification of the gene that encodes for the NK1 receptor: 24%
Percentage of inhibition of cell cultures; Ovarian carcinoma (Adenocarcinoma); high expression of the truncated form of NK1 receptor (Group B): 95%
Percentage of inhibition of cell cultures; Ovarian carcinoma (Adenocarcinoma); low expression of the truncated form of NK1 receptor (Group A): 25%
Percentage of inhibition of cell cultures; Pancreatic carcinoma (Adenocarcinoma); cases with amplification of the gene that encodes for the NK1 receptor: 96%
Percentage of inhibition of cell cultures; Pancreatic carcinoma (Adenocarcinoma); cases without amplification of the gene that encodes for the NK1 receptor: 25%
Percentage of inhibition of cell cultures; Pancreatic carcinoma (Adenocarcinoma); high expression of the truncated form of NK1 receptor (Group B): 95%
Percentage of inhibition of cell cultures; Pancreatic carcinoma (Adenocarcinoma); low expression of the truncated form of NK1 receptor (Group A): 23%
Percentage of inhibition of cell cultures; Prostate carcinoma; cases with amplification of the gene that encodes for the NK1 receptor: 95%
Percentage of inhibition of cell cultures; Prostate carcinoma; cases without amplification of the gene that encodes for the NK1 receptor: 25%
Percentage of inhibition of cell cultures; Prostate carcinoma; high expression of the truncated form of NK1 receptor (Group B): 95%
Percentage of inhibition of cell cultures; Prostate carcinoma; low expression of the truncated form of NK1 receptor (Group A): 27%
Percentage of inhibition of cell cultures; Renal cell carcinoma (clear cell renal cell carcinoma); cases with amplification of the gene that encodes for the NK1 receptor: 97%
Percentage of inhibition of cell cultures; Renal cell carcinoma (clear cell renal cell carcinoma); cases without amplification of the gene that encodes for the NK1 receptor: 27%
Percentage of inhibition of cell cultures; Renal cell carcinoma (clear cell renal cell carcinoma); high expression of the truncated form of NK1 receptor (Group B): 93%
Percentage of inhibition of cell cultures; Renal cell carcinoma (clear cell renal cell carcinoma); low expression of the truncated form of NK1 receptor (Group A): 24%
Percentage of inhibition of cell cultures; Thyroid carcinoma (follicular carcinoma); cases with amplification of the gene that encodes for the NK1 receptor: 95%
Percentage of inhibition of cell cultures; Thyroid carcinoma (follicular carcinoma); cases without amplification of the gene that encodes for the NK1 receptor: 26%
Percentage of inhibition of cell cultures; Thyroid carcinoma (follicular carcinoma); high expression of the truncated form of NK1 receptor (Group B): 94%
Percentage of inhibition of cell cultures; Thyroid carcinoma (follicular carcinoma); low expression of the truncated form of NK1 receptor (Group A): 24%
Percentage of inhibition of cell cultures; Thyroid carcinoma (papillary carcinoma); cases with amplification of the gene that encodes for the NK1 receptor: 96%
Percentage of inhibition of cell cultures; Thyroid carcinoma (papillary carcinoma); cases without amplification of the gene that encodes for the NK1 receptor: 27%
Percentage of inhibition of cell cultures; Thyroid carcinoma (papillary carcinoma); high expression of the truncated form of NK1 receptor (Group B): 95%
Percentage of inhibition of cell cultures; Thyroid carcinoma (papillary carcinoma); low expression of the truncated form of NK1 receptor (Group A): 25%
Percentage of inhibition of cell cultures; Undifferentiated Pleomorphic Sarcoma (malignant fibrous histiocytoma grade 3); cases with amplification of the gene that encodes for the NK1 receptor: 96%
Percentage of inhibition of cell cultures; Undifferentiated Pleomorphic Sarcoma (malignant fibrous histiocytoma grade 3); cases without amplification of the gene that encodes for the NK1 receptor: 25%
Percentage of inhibition of cell cultures; Undifferentiated Pleomorphic Sarcoma (malignant fibrous histiocytoma grade 3); high expression of the truncated form of NK1 receptor (Group B): 95%
Percentage of inhibition of cell cultures; Undifferentiated Pleomorphic Sarcoma (malignant fibrous histiocytoma grade 3); low expression of the truncated form of NK1 receptor (Group A): 25%
Percentage of inhibition of cell cultures; Urinary bladder carcinoma (transitional cell carcinoma); cases with amplification of the gene that encodes for the NK1 receptor: 94%
Percentage of inhibition of cell cultures; Urinary bladder carcinoma (transitional cell carcinoma); cases without amplification of the gene that encodes for the NK1 receptor: 24%
Percentage of inhibition of cell cultures; Urinary bladder carcinoma (transitional cell carcinoma); high expression of the truncated form of NK1 receptor (Group B): 96%
Percentage of inhibition of cell cultures; Urinary bladder carcinoma (transitional cell carcinoma); low expression of the truncated form of NK1 receptor (Group A): 26%
Substance: anti-NK1 antibody (S8305, Sigma-Aldrich)

Reference: patent EP2966448B1, “METHOD FOR THE PREDICTION OR PROGNOSIS OF THE RESPONSE OF A HUMAN SUBJECT SUFFERING FROM CANCER TO TREATMENT WITH AN ANTAGONIST OF THE NK1 RECEPTOR” (priority 2013, dated 2014)
